Patent publication US20080207488A1, “Method for Detecting Peptides Comprising a Cross-B Structure” (priority 2005, published 2008)

Columns and labels:
[1] = Thioflavin T fluorescence; type: physicochemical
tPA = target: T1, tPA (Homo sapiens, UniProt P00750); assay: Plasminogen-activation assay (tPA-mediated Plg to Pls, S-2251); type: biochemical
T1 construct: purchased Boehringer-Ingelheim (Actilyse, Alteplase)

[2] = target: T2, human fibronectin finger 4,5 (Fn F4,5) fragment (Homo sapiens, UniProt P02751); assay: ELISA, binding of fibronectin F4,5 to coated (mis)folded proteins; conditions: coated protein; for affinity of fibronectin F4,5 (detection anti-FLAG HRP): FIG. 7D-H
T2 construct: human fibronectin finger 4,5 (Fn F4,5) fragment; made in house; host or cells: HEK293E cells, transient transfection, protein purified from the medium
Protocol: The plates were blocked using Blocking reagent (Roche 1112589). A dilution series of the protein of interest was applied to the coated proteins and wells were subsequently washed using TBS-T (50 mM Tris pH 7.3, 150 mM NaCl and 0.1% Tween20). Bound protein is detected by the FLAG-tag using 1:3000 anti-FLAG-HRP (Sigma A-8592) in PBS-T, or by 1:1000 Ni-NTA-HRP (Qiagen 34530) in PBS-T. The HRP reaction Is performed using the TMB substrate (Biosource 4501103 or Tebu Bio 101TMB100-500), stopped using 10% H2SO4 and absorbance was measured at 450 nm.

T2 sequence (P02751 182-276 limits assumed): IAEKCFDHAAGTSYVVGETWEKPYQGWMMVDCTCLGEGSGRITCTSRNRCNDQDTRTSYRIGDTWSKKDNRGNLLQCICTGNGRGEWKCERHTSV
T1 sequence (P00750 36-562): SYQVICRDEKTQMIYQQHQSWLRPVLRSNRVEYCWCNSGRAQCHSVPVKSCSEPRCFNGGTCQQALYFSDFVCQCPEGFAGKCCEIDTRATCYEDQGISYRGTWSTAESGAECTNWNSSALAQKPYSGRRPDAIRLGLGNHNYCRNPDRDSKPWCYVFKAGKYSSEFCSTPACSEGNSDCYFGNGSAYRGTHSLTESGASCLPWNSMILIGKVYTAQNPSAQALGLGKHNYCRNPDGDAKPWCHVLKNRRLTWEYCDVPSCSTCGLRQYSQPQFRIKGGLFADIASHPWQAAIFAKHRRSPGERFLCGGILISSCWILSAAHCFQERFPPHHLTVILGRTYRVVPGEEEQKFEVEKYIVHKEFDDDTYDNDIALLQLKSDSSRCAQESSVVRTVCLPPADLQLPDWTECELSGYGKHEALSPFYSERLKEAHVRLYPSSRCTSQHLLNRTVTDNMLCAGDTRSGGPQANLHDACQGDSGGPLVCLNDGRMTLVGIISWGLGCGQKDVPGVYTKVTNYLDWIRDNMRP

Substance | ThT fluorescence enhancement ([1]; after storage at 65° C.) | Fluorescence (a.u. +/− SD) ThT ([1]; marketed biopharmaceutical within expiry limits, five μL tested) | enhancement of ThT fluorescence ([1]; therapeutics stored at 4° C.) | Pls activity (tPA activation) (tPA; after storage at 65° C.) | tPA activation by protein therapeutics (tPA; stored at 4° C., GH 500 μg ml^−1, zinc-insulin diluted tenfold) | binding of fibronectin F4-5 (detection Ni-NTA-HRP) ([2]; FIG. 7A) | affinity of fibronectin F4,5 (detection anti-FLAG HRP) [2] | ThT fluorescence after incubation with kaolin ([1]; compared to buffer) | activation of tPA and Plg by component alone (tPA; FIG. 2G, without contacting)
Abciximab: abciximab, an inhibitor of blood platelet aggregation (ReoPro, Centocor) | enhanced ThT fluorescence | 8 +/− 8 a.u. | do not have ThT fluorescence enhancing or tPA activating properties | induced Pls activity | do not have ThT fluorescence enhancing or tPA activating properties |  |  |  | 
albumin-AGE: advanced glycation end-product modified bovine serum albumin |  |  |  |  |  | high affinity binding | High affinities |  | 
lysozyme: chicken egg-white lysozyme |  |  |  |  |  |  | high affinity | only in a small increase in ThT fluorescence | do not activate tPA and Plg
